pKd: −log10 of the molar value.

The results in this text go back to paper PMC12312386, “Multiple transactivation domains of EZH2 bind to the TAZ2 domain of p300 and stimulate the acetyltransferase function of p300” (Biochemical Journal, 2025).

In the assay the target is p300 TAZ2 domain with 6xHis tag (p300_(TAZ2)-6×His) (human) (UniProt Q09472). Kind of assay: MST; p300_(TAZ2)-6×His labelled with RED-tris-NTA, constant at 10 nM; peptide varied by serial dilution; 25 mM Tris pH 7.5, 150 mM NaCl, 2.5 mM DTT; 1:1 stoichiometry fit.
For the substance “EZH2_(TAD1) peptide (aa 142-154 of EZH2) (from UniProt Q15910 142-154)”, the pKd (usually −log10 of the Kd, conventionally taken in molar units) was 6.28.

On to “EZH2_(TAD3) peptide (aa 220-231 of EZH2) (from UniProt Q15910 220-231)”, for which the negative logarithm of the Kd (pKd) is 6.28.

In turn, “EZH2_(TAD2) peptide (aa 167-185 of EZH2) (from UniProt Q15910 167-185)” showed a pKd of 6.51.
